# Experimental data reported in publication PMC3115060, “Structural Analysis of a Novel Class of R–M Controller Proteins: C.Csp231I from Citrobacter sp. RFL231” (Journal of Molecular Biology, 2011).
# B1: C.Csp231I controller protein (natural protein, Citrobacter sp. RFL231, UniProt Q32WH4 1-98, looked up)
# chain: MLIRRLKDARLRAGISQEKLGVLAGIDEASASARMNQYEKGKHAPDFEMANRLAKVLKIPVSYLYTPEDDLAQIILTWNELNEQERKRINFYIRKKAK
# notes: C.Csp231I controller protein of the Csp231I restriction-modification system, Citrobacter sp; RFL231; native untagged protein, 98 amino acids (Mr 11,360), expressed from the csp231IC gene; Homodimer in solution and in both crystal forms; also called C-protein; source: E. coli BL21(DE3) Gold, pET-11a, purified (HiTrap heparin, HiTrap SP, Sephacryl S-100 HR)
# Target: the molecule itself
# Experiment: AUC; sedimentation velocity, 10-80 uM protein, 50 mM Tris-HCl pH 8.0, 100 mM NaCl, 1 mM Na2-EDTA, 20 C, 40,000 rpm, 280 nm; self-association (dimer)
protein,measurement,value
B1,stoichiometry N,2
